Test results as given in EP1752538A1 (BAYER CORPORATION, dated 1997).
Read-outs that look alike come from different tables or passages of the source. Where no end group is shown, it is not given here.

What was measured:
[1] = target: T1, human plasmin (human, UniProt P00747 97-810); experiment: enzyme inhibition kinetics, plasmin 50 pM
T1 construct: Active enzyme

[2] = target: T2, bovine trypsin (type III) (bovine, UniProt P00760 24-246); experiment: enzyme inhibition kinetics, trypsin 48.5 pM
T2 construct: Active enzyme, active-site titrated
T2 sequence (P00760 24-246): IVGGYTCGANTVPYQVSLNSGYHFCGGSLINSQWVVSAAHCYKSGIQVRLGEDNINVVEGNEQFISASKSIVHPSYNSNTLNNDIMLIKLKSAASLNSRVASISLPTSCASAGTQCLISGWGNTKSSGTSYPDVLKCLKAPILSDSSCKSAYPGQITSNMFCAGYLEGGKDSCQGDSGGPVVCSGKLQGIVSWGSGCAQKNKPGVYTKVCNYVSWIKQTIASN

[3] = target: T3, tissue plasminogen activator (single chain form from human melanoma cell culture) (human, UniProt P00750 36-562, limits assumed); experiment: enzyme inhibition, tPA 7.5 nM, chromogenic pNA substrate
T3 construct: also called tPA
T3 sequence (P00750 36-562 limits assumed): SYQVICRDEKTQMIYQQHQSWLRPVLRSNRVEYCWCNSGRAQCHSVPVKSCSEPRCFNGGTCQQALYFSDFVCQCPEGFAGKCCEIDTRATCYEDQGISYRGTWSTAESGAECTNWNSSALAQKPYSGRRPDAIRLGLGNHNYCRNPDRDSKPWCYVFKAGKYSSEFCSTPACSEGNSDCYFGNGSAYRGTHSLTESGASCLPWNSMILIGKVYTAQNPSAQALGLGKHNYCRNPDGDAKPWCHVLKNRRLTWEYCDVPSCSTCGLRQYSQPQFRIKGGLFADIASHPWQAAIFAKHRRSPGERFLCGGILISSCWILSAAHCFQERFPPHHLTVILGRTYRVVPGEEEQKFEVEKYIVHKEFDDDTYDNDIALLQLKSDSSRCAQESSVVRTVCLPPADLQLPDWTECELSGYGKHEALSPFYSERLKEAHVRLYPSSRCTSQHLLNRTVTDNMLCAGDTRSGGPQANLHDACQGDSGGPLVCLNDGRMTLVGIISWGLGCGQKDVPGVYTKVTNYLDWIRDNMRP

[4] = target: T4, human plasma kallikrein (human, UniProt P03952 20-638); experiment: enzyme inhibition kinetics, kallikrein 2.5 nM
T4 construct: Active enzyme
T4 sequence (P03952 20-638 limits assumed): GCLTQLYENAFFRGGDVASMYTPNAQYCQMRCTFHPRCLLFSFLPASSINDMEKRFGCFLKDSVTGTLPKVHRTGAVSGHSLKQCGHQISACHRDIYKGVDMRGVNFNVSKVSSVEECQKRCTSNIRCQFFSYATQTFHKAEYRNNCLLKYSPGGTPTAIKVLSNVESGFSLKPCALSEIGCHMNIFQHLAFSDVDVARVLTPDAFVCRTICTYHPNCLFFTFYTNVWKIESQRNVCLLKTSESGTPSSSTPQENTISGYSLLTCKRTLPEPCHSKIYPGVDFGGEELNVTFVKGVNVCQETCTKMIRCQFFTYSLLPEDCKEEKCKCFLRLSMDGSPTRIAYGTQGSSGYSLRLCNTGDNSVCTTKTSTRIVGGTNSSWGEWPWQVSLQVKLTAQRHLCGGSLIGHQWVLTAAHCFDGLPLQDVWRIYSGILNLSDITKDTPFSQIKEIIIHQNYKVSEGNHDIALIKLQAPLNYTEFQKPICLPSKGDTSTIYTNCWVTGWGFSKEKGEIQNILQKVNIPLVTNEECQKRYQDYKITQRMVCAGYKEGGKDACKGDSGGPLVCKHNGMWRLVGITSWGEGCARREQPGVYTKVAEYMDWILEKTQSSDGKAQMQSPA

[5] = target: T2, bovine trypsin (type III); experiment: enzyme inhibition kinetics, trypsin 48.5 pM; remark: listed apart in the source
[6] = target: T1, human plasmin; experiment: enzyme inhibition kinetics, plasmin 50 pM; remark: listed apart in the source
[7] = target: human tissue kallikrein (human, UniProt P06870 25-262); experiment: enzyme inhibition kinetics, tissue kallikrein 0.35 nM, PFR-AMC substrate
human tissue kallikrein, sequence (P06870 25-262 limits assumed): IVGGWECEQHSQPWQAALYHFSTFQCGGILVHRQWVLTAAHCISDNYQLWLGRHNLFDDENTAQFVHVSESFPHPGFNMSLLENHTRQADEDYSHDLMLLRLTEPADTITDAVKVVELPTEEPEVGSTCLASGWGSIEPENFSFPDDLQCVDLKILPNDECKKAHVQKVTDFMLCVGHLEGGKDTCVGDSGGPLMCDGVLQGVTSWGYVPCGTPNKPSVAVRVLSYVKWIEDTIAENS

[8] = target: human factor Xa (human, UniProt P00742 41-488, limits assumed); experiment: enzyme inhibition kinetics, factor Xa 0.87 nM
[9] = target: T5, bovine pancreatic kallikrein (bovine); experiment: enzyme inhibition kinetics, kallikrein 100 pM
T5 construct: also called immobilized bovine pancreatic kallikrein; kallikrein-sepharose

[10] = target: T6, Factor XIa (Homo sapiens (Human), UniProt P03951 19-387; P03951 388-625, Activated enzyme cleaved after Arg387 of the precursor. The native molecule is a disulfide-linked homodimer of heavy-plu [CUT]); experiment: enzyme inhibition kinetics, factor XIa 0.1 nM
T6 construct: also called FXIa
T6 sequence (P03951 19-387 limits assumed, form in doubt, chain 1 of 2): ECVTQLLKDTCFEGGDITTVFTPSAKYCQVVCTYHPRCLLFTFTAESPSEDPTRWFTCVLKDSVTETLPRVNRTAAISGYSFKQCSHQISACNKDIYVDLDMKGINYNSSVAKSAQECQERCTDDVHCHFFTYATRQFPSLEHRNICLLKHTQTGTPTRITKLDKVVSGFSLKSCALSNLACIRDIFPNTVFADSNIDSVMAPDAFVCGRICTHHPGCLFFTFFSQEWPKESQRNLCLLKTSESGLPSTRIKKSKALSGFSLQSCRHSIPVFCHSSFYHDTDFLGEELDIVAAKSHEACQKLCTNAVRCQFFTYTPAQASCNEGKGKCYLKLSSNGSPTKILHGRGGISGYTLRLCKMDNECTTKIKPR
T6 sequence (P03951 388-625 limits assumed, form in doubt, chain 2 of 2): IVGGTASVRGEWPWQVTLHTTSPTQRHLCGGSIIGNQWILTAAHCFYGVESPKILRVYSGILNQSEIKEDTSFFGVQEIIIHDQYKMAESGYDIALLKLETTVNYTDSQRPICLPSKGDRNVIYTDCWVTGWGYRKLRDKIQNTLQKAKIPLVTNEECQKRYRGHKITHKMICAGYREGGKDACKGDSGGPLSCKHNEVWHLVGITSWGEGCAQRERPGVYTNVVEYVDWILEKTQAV

[11] = target: T7, Tissue Factor VIIa; experiment: enzyme inhibition
T7 construct: Complex of tissue factor and factor VIIa; no method is described for it; also called tissue factor VIIa complex

[12] = target: Bovine chymotrypsin (bovine, UniProt P00766 1-245); experiment: enzyme inhibition kinetics, chymotrypsin 5 nM
[13] = target: T5, bovine pancreatic kallikrein; experiment: enzyme inhibition kinetics, kallikrein 92.0 pM

T1 sequence (P00747 97-810 limits assumed): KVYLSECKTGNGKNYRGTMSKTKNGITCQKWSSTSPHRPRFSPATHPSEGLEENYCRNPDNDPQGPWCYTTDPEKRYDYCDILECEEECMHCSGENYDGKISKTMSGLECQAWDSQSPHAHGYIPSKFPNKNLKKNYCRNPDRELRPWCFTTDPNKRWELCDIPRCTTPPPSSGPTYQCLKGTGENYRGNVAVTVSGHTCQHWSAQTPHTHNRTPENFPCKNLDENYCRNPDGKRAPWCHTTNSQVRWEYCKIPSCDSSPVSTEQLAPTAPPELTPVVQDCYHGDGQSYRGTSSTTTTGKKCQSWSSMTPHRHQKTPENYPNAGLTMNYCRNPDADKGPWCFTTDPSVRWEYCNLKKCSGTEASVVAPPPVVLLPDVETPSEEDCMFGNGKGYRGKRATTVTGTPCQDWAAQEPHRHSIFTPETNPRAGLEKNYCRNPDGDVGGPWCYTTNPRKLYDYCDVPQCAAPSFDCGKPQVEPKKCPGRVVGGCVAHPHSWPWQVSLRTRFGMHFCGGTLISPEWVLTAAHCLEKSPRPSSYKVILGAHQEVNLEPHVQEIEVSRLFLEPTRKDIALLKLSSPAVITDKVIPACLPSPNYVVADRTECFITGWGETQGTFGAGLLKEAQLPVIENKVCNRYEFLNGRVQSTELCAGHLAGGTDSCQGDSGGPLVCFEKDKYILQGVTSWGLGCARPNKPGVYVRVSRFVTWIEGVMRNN

B1: native human placental bikunin isolated from human placenta (other)
chain: ADRERSIHDFCLVSKVVGRCRASMPRWWYNVTDGSCQLFVYGGCDGNSNNYLTKEECLKKCATVTENATGDLATSRNAADSSVPSAPRRQDSEDHSSDMFNYEEYCTANAVTGPCRASFPRWYFDVERNSCNNFIYGGCRGNKNSYRSEEACMLRCFRQQENPPLPLGSKVVVLAGAVS
modifications: asparagine 30 silent in sequencing, likely glycosylated
notes: Soluble protein purified from placenta; A minor species starts at residue 6; also called native Placental Bikunin (1-179)
Ki [1]: 1.9 nM | Ki [2]: 0.13 nM

B2: recombinant placental bikunin (1-170) from baculovirus / Sf9 cells (other)
chain: ADRERSIHDFCLVSKVVGRCRASMPRWWYNVTDGSCQLFVYGGCDGNSNNYLTKEECLKKCATVTENATGDLATSRNAADSSVPSAPRRQDSEDHSSDMFNYEEYCTANAVTGPCRASFPRWYFDVERNSCNNFIYGGCRGNKNSYRSEEACMLRCFRQQENPPLPLGSK
modifications: asparagine 30 silent in sequencing, consistent with glycosylation
notes: signal peptide correctly removed (N-terminus ADRER); also called Recombinant Bikunin; Sf9-derived human placental bikunin (1-170)
Ki [3]: < 60 nM | Ki [4]: 0.18 nM | Ki [5]: 0.064 nM | Ki [6]: 0.23 nM | Ki [7]: 0.04 nM | Ki [8]: 180 nM | Ki [9]: 0.12 nM | Ki [10]: 3 nM | Ki [11]: 800 nM

B3: synthetic placental bikunin (7-64), first preparation (other)
chain: IHDFCLVSKVVGRCRASMPRWWYNVTDGSCQLFVYGGCDGNSNNYLTKEECLKKCATV
modifications: ends and bridges not checked; also: may be incompletely deprotected before refolding
notes: also called placental bikunin fragment (7-64); KID1
Ki [12]: 0.6 nM | Ki [13]: 0.4 nM
